In IntAct's records for PubMed 17803994:

B1: Neutrophil cytosol factor 4 (Homo sapiens), Q15080 (parent)
chain: MAVAQQLRAESDFEQLPDDVAISANIADIEEKRGFTSHFVFVIEVKTKGGSKYLIYRRYRQFHALQSKLEERFGPDSKSSALACTLPTLPAKVYVGVKQEIAEMRIPALNAYMKSLLSLPVWVLMDEDVRIFFYQSPYDSEQVPQALRRLRPRTRKVKSVSPQGNSVDRMAAPRAEALFDFTGNSKLELNFKAGDVIFLLSRINKDWLEGTVRGATGIFPLSFVKILKDFPEEDDPTNWLRCYYYEDTISTIKDIAVEEDLSSTPLLKDLLELTRREFQREDIALNYRDAEGDLVRLLSDEDVALMVRQARGLPSQKRLFPWKLHITQKDNYRVYNTMP
partner: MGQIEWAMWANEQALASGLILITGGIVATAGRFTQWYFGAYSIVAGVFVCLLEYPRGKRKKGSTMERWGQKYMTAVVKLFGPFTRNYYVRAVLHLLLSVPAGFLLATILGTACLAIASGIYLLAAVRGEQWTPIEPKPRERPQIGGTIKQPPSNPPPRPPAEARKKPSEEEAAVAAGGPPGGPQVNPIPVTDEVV
B2: Cytochrome b-245 light chain (Homo sapiens), P13498 (parent)
chain: B1 partner
partner: B1 chain
B3: Cytochrome b-245 light chain (Homo sapiens), P13498 (parent)
chain: B1 partner

Variants of: B1
Details: with cy24a_human CYBA

Variant	effect of a mutation on the interaction
MAVAQQLRAESDFEQLPDDVAISANIADIEEKRGFTSHFVFVIEVKTKGGSKYLIYRRYRQFHALQSKLEERFGPDSKSSALACTLPTLPAKVYVGVKQEIAEMRIPALNAYMKSLLSLPVWVLMDEDVRIFFYQSPYDSEQVPQALRRLRPRTRKVKSVSPQGNSVDRMAAPRAEALFDFTGNSKLELNFKAGDVIFLLSRINKDRLEGTVRGATGIFPLSFVKILKDFPEEDDPTNWLRCYYYEDTISTIKDIAVEEDLSSTPLLKDLLELTRREFQREDIALNYRDAEGDLVRLLSDEDVALMVRQARGLPSQKRLFPWKLHITQKDNYRVYNTMP [W207R]	decreasing interaction

Variants of: B2
Details: with ncf4_human NCF4, Q15080

Variant	effect of a mutation on the interaction
MGQIEWAMWANEQALASGLILITGGIVATAGRFTQWYFGAYSIVAGVFVCLLEYPRGKRKKGSTMERWGQKYMTAVVKLFGPFTRNYYVRAVLHLLLSVPAGFLLATILGTACLAIASGIYLLAAVRGEQWTPIEPKPRERPQIGGTIKQPPSNPQPRPPAEARKKPSEEEAAVAAGGPPGGPQVNPIPVTDEVV [P156Q]	decreasing interaction

Variants of: B3
Details: with ncf1_human NCF1, P14598
Chain of ncf1_human NCF1, P14598 (P14598 whole entry): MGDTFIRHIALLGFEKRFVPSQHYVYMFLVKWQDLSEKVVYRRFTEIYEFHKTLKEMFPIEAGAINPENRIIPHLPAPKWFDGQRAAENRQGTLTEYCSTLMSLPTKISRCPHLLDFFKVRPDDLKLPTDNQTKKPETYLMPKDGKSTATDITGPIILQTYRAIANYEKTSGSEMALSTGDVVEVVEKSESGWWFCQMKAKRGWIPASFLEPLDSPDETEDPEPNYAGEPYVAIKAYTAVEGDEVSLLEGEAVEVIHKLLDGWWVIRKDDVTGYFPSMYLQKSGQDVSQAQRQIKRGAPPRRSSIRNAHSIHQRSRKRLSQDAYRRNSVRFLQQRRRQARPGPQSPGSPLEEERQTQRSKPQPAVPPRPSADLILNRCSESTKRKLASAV

Variant	effect of a mutation on the interaction
MGQIEWAMWANEQALASGLILITGGIVATAGRFTQWYFGAYSIVAGVFVCLLEYPRGKRKKGSTMERWGQKYMTAVVKLFGPFTRNYYVRAVLHLLLSVPAGFLLATILGTACLAIASGIYLLAAVRGEQWTPIEPKPRERPQIGGTIKQPPSNPQPRPPAEARKKPSEEEAAVAAGGPPGGPQVNPIPVTDEVV [P156Q]	decreasing interaction
